# T1: protease domain of LctT (GST-Lpd) (Lactococcus lactis subsp. lactis, UniProt P37608)
# T1 sequence (P37608 whole entry, looked up): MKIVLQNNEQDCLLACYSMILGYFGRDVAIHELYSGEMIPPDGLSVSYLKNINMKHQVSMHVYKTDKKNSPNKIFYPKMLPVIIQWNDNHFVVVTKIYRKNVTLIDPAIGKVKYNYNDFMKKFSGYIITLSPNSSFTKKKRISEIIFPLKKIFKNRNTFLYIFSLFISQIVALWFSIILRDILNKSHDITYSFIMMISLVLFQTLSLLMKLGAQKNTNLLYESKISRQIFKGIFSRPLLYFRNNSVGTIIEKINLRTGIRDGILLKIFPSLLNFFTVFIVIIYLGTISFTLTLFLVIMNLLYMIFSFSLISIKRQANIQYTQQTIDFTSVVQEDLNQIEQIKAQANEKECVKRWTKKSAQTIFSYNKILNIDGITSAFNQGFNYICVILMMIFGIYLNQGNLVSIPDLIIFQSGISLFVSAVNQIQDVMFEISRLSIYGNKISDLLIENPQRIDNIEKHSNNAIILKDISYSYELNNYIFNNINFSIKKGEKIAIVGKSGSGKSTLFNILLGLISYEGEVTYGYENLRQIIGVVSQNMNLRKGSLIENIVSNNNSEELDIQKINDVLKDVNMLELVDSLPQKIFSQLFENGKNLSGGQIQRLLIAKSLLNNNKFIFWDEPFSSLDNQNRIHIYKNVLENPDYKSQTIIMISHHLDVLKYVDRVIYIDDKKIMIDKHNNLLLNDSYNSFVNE
# B1: His6-LctA (peptide)
# peptide: GSSHHHHHHSSGLVPRGSHMKEQNSFNLLQEVTESELDLILGAKGGSGVIHTISHECNMNSWQFVFTCCS
# B2: His6-LctA modified by LctM: fully processed product, lacticin 481 fused to its leader peptide (peptide)
# peptide: B1 peptide
# modifications: not fully specified (residues 52, 54, 61, 67, bridges)
# B3: LctMutA: His-tag, LctA leader and mutacin II structural region (peptide)
# chain: GSSHHHHHHSSGLVPRGSHMLEMKEQNSFNLLQEVTESELDLILGANRWWQGVVPTVSYECRMNSWQHVFTCC
# Columns and labels:
# LctM = LctM (Lactococcus lactis subsp. lactis, UniProt P37609); test: LctM activity assay: dehydration and cyclization of peptide substrates, read out by MS; assay type: biochemical, Lactococcus lactis CNRZ 481; conditions: for effect on LctM processing of His6-LctA: ATP analog in place of ATP, EDTA added; for number of dehydrations after incubation with LctM: MALDI-MS / ESI-FTMS of product
# From the text: For MALDI MS analysis, 1 microL of the assay sample was mixed with 9 microL of sinapinic acid pre-dissolved in MeCN:H2O (2:1) in 0.1% TFA and 1 microL of the mixture was applied on the MALDI target. MALDI MS calcd. […] ESI-FT-MS for the major product: mass calcd.
# [1] = molecular target: His6-LctA (Lactococcus lactis CNRZ 481)
# [2] = molecular target: His6-LctA-T48S (Lactococcus lactis CNRZ 481)
# [3] = molecular target: LctMutA (Artificial Sequence)
# [4] = molecular target: LctRumA (Artificial Sequence)
# [5] = molecular target: MutA (His-tagged mutacin II prepeptide) (Artificial)
# [6] = molecular target: LctMutAK (Artificial Sequence)
# [7] = test system: methicillin-resistant Staphylococcus aureus (MRSA); conditions: cited from earlier work
# L. lactis CNRZ 117 = test: Bioassay for lantibiotic activity (solid agar diffusion); assay type: cell-based, Lactococcus lactis; conditions: agar diffusion assay, lacticin 481-sensitive indicator strain L. lactis CNRZ 117
# Procedure: The lyophilized assay product (˜0.1 microg) was redissolved in 6 microL of Millipore water. To the solution, 4 microL of a solution of Lys-C in 100 mM Tris, pH 8.5 (0.4 ng/microL) was added and the mixture was incubated at 37° C. for 3 h. The resulting mixture was checked by MALDI-TOF MS. Three fragments were expected and two were observed: calcd, 2310 ([1-21]), 2591 ([22-44]), 2773 ([45-70]); found, 2593 ([22-44]), 2775 ([45-70]).
# Inhibitory activity was assayed by the solid agar medium test. A GM17 agar plate was seeded with the test strain by mixing 100 mL of liquid GM17 agar at 50° C. with 1.5 mL of an overnight culture. After agar solidification, wells were created in the medium and the samples were added to the wells. The activity of the starting peptide, LctM-product, and the product and starting peptide treated with Lys-C were determined using a solid agar diffusion bioassay with indicator strain L. lactis CNRZ 117 (See FIG. 5).
# FIG. 5 illustrates a bioassay for lantibiotic activity. Small aliquots of the following samples were added in the wells: (1) His6-LctA (SEQ ID NO:4), (2) His6-LctA treated with Lys-C, (3) His6-LctA modified by LctM, (4) His6-LctA modified by LctM and treated with Lys-C, (5) cell free broth of L. lactis CNRZ 117, (6) cell free broth of L. lactis CNRZ 481 containing lacticin 481, (7) 50 mM Tris buffer, pH 8.5, (8) Lys-C in 50 mM Tris buffer, pH 8.5.
# [8] = molecular target: T1, protease domain of LctT (GST-Lpd); test: Leader cleavage by the LctT protease domain (GST-Lpd); assay type: biochemical, Lactococcus lactis CNRZ 481; conditions: MALDI-TOF MS
# Procedure: Cleavage of His-LctA and His-pro-Lacticin. The unmodified His-LctA substrate was either directly incubated with GST-Lpd or first modified by LctM prior to incubation with the protease. Assay mixtures typically contained substrate (50-500 μg), GST-Lpd (35-70 μg) and a buffer consisting of 200 mM NaPi, pH 7.5, 200 mM Na2SO4 and 5 mM DTT. Assays were incubated at 37° C. for 12 h and analyzed by MALDI-TOF MS. Both unmodified and modified His-LctA were substrates for GST-Lpd as determined by MALDI-TOF MS and sensitivity of indicator strain Lactococcus lactis 117 towards the modified substrate after cleavage. See FIG. 83 which illustrates LctT as a bifunctional protein including the proteolytic domain.
# LctM, sequence (P37609 whole entry): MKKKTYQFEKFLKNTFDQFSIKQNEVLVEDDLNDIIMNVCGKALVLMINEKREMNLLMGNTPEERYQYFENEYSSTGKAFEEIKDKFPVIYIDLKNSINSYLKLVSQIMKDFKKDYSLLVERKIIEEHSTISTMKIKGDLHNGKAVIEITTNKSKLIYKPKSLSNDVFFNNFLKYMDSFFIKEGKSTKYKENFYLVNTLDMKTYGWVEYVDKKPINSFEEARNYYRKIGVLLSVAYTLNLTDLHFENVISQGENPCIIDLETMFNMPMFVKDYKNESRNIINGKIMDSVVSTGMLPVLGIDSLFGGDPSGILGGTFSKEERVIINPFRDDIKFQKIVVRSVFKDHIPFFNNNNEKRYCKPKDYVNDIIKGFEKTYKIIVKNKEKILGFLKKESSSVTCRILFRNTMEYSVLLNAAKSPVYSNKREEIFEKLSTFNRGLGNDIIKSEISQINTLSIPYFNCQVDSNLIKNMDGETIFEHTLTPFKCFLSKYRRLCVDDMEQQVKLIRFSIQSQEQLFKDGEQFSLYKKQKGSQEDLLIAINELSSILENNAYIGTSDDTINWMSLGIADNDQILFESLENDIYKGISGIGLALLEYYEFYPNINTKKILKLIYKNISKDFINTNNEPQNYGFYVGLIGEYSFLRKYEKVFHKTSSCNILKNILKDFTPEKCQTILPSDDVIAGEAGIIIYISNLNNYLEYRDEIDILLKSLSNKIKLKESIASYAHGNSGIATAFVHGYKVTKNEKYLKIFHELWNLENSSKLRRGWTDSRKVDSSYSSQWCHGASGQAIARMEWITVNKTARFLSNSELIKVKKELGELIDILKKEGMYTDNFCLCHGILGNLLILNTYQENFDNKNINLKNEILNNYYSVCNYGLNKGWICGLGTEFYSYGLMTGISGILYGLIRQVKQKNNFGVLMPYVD
molecule,measurement,setting,value
Nc1ncnc2c1ncn2[C@@H]1O[C@H](COP(=O)(O)OP(=O)(O)CP(=O)(O)O)[C@@H](O)[C@H]1O [AMP-PCP],effect on LctM processing of His6-LctA,LctM,completely abolished
Nc1ncnc2c1ncn2[C@@H]1O[C@H](COP(=O)(O)OP(=O)(O)NP(=O)(O)O)[C@@H](O)[C@H]1O [AMP-PNP],effect on LctM processing of His6-LctA,LctM,completely abolished
Nc1ncnc2c1ncn2[C@@H]1O[C@H](CO[P@](=O)(O)O[P@](=O)(O)O[P@@](=O)(O)S)[C@@H](O)[C@H]1O [ATP-gamma-S],effect on LctM processing of His6-LctA,LctM,less efficient
O=C(O)CN(CCN(CC(=O)O)CC(=O)O)CC(=O)O [EDTA],effect on LctM processing of His6-LctA,LctM,abolished the reaction
His6-LctM (lacticin 481 synthetase LctM with N-terminal His6-tag) (enzyme),"dehydration and cyclization of the substrate (ESI-FTMS, MS/MS)",[1],> 80%
same,dehydration of the substrate (MS),[2],4 dehydrations
same,dehydration of the substrate,[3],4 dehydrations
same,dehydration of the substrate,[4],4 dehydrations
same,dehydration of the substrate,[5],4 dehydrations
same,dehydration of the substrate,[6],4 dehydrations
mersacidin,cytotoxic activity against MRSA,[7],comparable cytotoxic activity
B1,antimicrobial activity (zone of inhibition),L. lactis CNRZ 117,No antimicrobial activity was detected
same,number of dehydrations after incubation with LctM,LctM,four
same,substrate converted to M-72 product,LctM; treatment with LctM for 1 hour,more than 80%
same,cleavage of the leader by the LctT protease domain,[8],substrates
B2,antimicrobial activity (zone of inhibition),L. lactis CNRZ 117,No antimicrobial activity was detected
same,cleavage of the leader by the LctT protease domain,[8],substrates
B3,number of dehydrations after incubation with LctM,LctM,4
same,cleavage of the leader by the LctT protease domain,[8],can remove the leader peptide and the His-tag
